One assay deals with mob-5. The experiment in a line: Differential display of Rat-1(ras) cells with or without PD98059. It is filed as cell-based. As to conditions: 10 μM for 24 hours. As to the method: (B) Identification of mob-5 as a gene activated by oncogenic h-ras but inactivated by MAP kinase inhibitor, PD98059. Total cellular RNA from the normal Rat-1 cells and their oncogenic h-ras transformed derivatives Rat-1(ras) treated with or without 10 μM of PD98059 for 24 hours were compared by differential display. The same primer combination as used in (A) identified the mob-5 (arrow) again as a candidate gene activated by ras but inhibited by ras downstream MAP kinase inhibitor.
RNA purification, automated differential display screening and Northern blot analysis Total RNA from cells were purified using the RNApure reagent following the manufacture instruction (GenHunter Corp., Nashville, Tenn.). DNase I treatment of RNA prior to differential display was carried out using the MessageClean kit (GenHunter Corp., Nashville, Tenn.). Differential display PCR reactions were setup in 96-well PCR plates (Perkin-Elmer) by the Beckman Biomek 2000 automated liquid dispensing workstation using one-base anchored oligo-dT primers and rationally designed arbitrary 13mers (Liang et al., 1994b) from the RNAimage kits (GenHunter Corp., Nashville, Tenn.). The cDNAs were amplified in the presence of ^33P [(α-dATP] (New England Nuclear, Boston, Mass.) using Taq DNA polymerase (Qiagene) and separated on 6 % denaturing polyacrylamide gels (National Diagnostic, Atlanta, Ga.). […]

Assay [1] has as its system putative Mob-5 receptor on the cell surface of h-ras transformed Rat-1 cells. As to the kind of experiment: Mob-5-AP receptor binding assay on Rat-1 cells before and after h-ras transformation. As to conditions: normal versus h-ras transformed Rat-1 cells, media at 0.7 unit/ml. As to the method:
Both the normal and oncogenic h-ras transformed Rat-1 cells were analyzed for the ability to bind Mob-5-AP versus AP alone. The cell surface bound AP activity was measured to reveal a Mob-5 mediated-binding activity present only on the cell surface of the h-ras transformed cells. The result is representative of at least 5 independent experiments.
Identification of a putative receptor(s) of Mob-5 on the cell surface of h-ras transformed cells Another possible mechanism for Mob-5 function is that Mob-5 acts as an autocrine growth factor downstream of activated Ras. Ras transformed RIE cells can be used in a receptor binding assay. APtag technology (Flanagan and leder, 1990) was employed to create a Mob-5-alkaline phosphatase (AP) fusion protein, which can be used as an affinity agent for the receptor analysis. This strategy has been successfully used to identify and clone a number of important cell surface receptors, including those of leptin (Tartaglia et al., 1995) and semaphorin III (He and Tessier-Lavigne, 1997). Like Mob-5 itself, Mob-5-AP was secreted at high levels in 293T cells stably transfected with the recombinant plasmid. The secreted 90 KD Mob-5-AP can be readily detected from the culture media by either the alkaline phosphatase assay or direct Western blot analysis using anti-Mob-5 antibody (FIG. 4A). […]

Assay [2] has as its system putative Mob-5 receptor on the cell surface of h-ras transformed RIE cells. As to the kind of experiment: AP fusion protein receptor binding assay on RIE cells before and after h-ras transformation. The conditions noted are these: normal versus h-ras transformed RIE cells, media at 0.7 unit/ml. The arrangement: species or system rat. As to the method: (E) Mob-5-AP, but not hMob-5-AP, binds specifically to the cell surface of oncogenic h-ras transformed RIE cells. Both the normal and oncogenic h-ras transformed RIE cells were analyzed for the ability to bind Mob-5-AP versus AP alone. The same experiment was carried out with hMob-5-AP and AP alone. The cell surface bound AP activity was measured to reveal a species specific Mob-5 binding activity present only on the cell surface of the h-ras transformed RIE cells. The result is representative of at least 3 independent experiments.
As in Rat-1 cells, the putative Mob-5 receptor was also found to be differentially expressed between the normal and h-ras transformed RIE cells using Mob-5-AP fusion protein as a ligand (FIG. 4E, left panel). To determine whether hMob-5-AP could also differentially bind to the cell surface of h-ras transformed RIE cells, the receptor binding assay was conducted using hMob-5-AP in place of Mob-5-AP.
mob-5 expression is activated by both oncogenic h-ras and k-ras in intestinal epithelial cells Cancer arises from the epithelial cells rather than fibroblasts and K-ras mutations have been tightly linked with cancers of gastric intestinal origins (Kiaris and Spandidos, 1995). […] After the final 5 min extension at 72 ° C., the RT-PCR products were analyzed on a 1.5 % agarose gel. […]

Experimental findings from patent US20040019193A1, “Mob-5/hmob-5 as a cancer diagnostic marker” (priority 2002, published 2004) are described below.

Turning to `COc1cccc(-c2cc(=O)c3ccccc3o2)c1N` [PD98059], the “mob-5 expression (differential display)” value in the assay on mob-5 is recorded as “inactivated”.

B1: Mob-5-AP: rat Mob-5-alkaline phosphatase fusion protein, secreted, 90 KD (SEQ ID NO: 8) (protein)
chain: MQTSLRQQILPGLSLILLVLNQVPELQGQEFRFGPCQVTGVVLPELWEAFWTVKNTVKTQDELTSVRLLKPQVLQNVSDAESCYLAHSLLKFYLNTVFKNYHSKIVKFKVLKSFSTLANNFLVIMSKLQPSKDNAMLPISDSARRRFLLYHRTFKQLDIEVALAKAFGEVDILLAWMQNFYQLGSSGIIPVEEENPDFWNREAAEALGAAKKLQPAQTAAKNLIIFLGDGMGVSTVTAARILKGQKKDKLGPEIPLAMDRFPYVALSKTYNVDKHVPDSGATATAYLCGVKGNFQTIGLSAAARFNQCNTTRGNEVISVMNRAKKAGKSVGVVTTTRVQHASPAGTYAHTVNRNWYSDADVPASARQEGCQDIATQLISNMDIDVILGGGRKYMFPMGTPDPEYPDDYSQGGTRLDGKNLVQEWLAKRQGARYVWNRTELMQASLDPSVTHLMGLFEPGDMKYEIHRDSTLDPSLMEMTEAALRLLSRNPRGFFLFVEGGRIDHGHHESRAYRALTETIMFDDAIERAGQLTSEEDTLSLVTADHSHVFSFGGYPLRGSSIFGLAPGKARDRKAYTVLLYGNGPGYVLKDGARPDVTESESGSPEYRQQSAVPLDEETHAGEDVAVFARGPQAHLVHGVQEQTFIAHVMAFAACLEPYTACDLAPPAGTTDAAHPG
Consider B1, for which the “cell surface binding (bound AP activity) versus AP alone” value is “preferentially bound to the cell surface of the h-ras transformed Rat-1 cells, but not of the parental control” in assay [1] and “binds specifically only to the ras transformed RIE cells” in assay [2].
